Results from paper PMC10470053, “Diverse p120RasGAP interactions with doubly phosphorylated partners EphB4, p190RhoGAP, and Dok1” (The Journal of Biological Chemistry, 2023).
Numbering of substitutions follows the chain as printed. Several values for one entry are separate records, joined by “and”; a condition that tells them apart may be missing. Equal values may be shown once. Square brackets hold non-standard residues; d marks the D form. pY = N[C@@H](Cc1ccc(OP(=O)(O)O)cc1)C(=O)O

T1: RasGAP^2(mut)32 (RasGAP^232 with R207A in the N-SH2 domain) (human, UniProt P20936 174-444, C236S | C261S | C372S | C402S | R207 to alanine)
T1 construct: p120RasGAP, human, UniProt P20936, residues 174-444; Made by site-directed mutagenesis of RasGAP^232, which holds the four cysteine to serine mutations; also called N-SH2 mutant; source: E. coli Rosetta (DE3), purified (same protocol as the WT counterpart); not shown: His6, N-terminal, cleaved
T1 sequence (looked up): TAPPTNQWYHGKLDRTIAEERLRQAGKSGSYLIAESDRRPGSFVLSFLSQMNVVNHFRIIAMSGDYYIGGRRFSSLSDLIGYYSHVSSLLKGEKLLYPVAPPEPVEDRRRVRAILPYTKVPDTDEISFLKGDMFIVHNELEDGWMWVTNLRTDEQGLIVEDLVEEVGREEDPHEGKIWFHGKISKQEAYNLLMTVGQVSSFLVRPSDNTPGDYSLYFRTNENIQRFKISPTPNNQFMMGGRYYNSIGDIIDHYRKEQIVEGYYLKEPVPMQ

T2: RasGAP^232 (p120RasGAP SH2-SH3-SH2 region, residues 174-444) (human, C236S (stands in the printed letters) | C261S (stands in the printed letters) | …)
T2 construct: p120RasGAP, human, UniProt P20936, residues 174-444 (N-SH2, SH3, C-SH2) with four cysteine to serine mutations; the methods say that the hexahistidine tag was cut off with TEV, so G-S of the printed stretch probably stay before T174; also called WT RasGAP^232; source: E. coli Rosetta (DE3), purified (Ni-NTA, TEV cleavage, anion exchange, SEC); not shown: His6, N-terminal, cleaved
T2 chain: T1 sequence (looked up) with A34R

T3: RasGAP^232(mut) (RasGAP^232 with R398E/K400E in the C-SH2 domain) (human, UniProt P20936 174-444, C236S | C261S | C372S | C402S | R398E | K400E)
T3 construct: p120RasGAP, human, UniProt P20936, residues 174-444; Made by site-directed mutagenesis of RasGAP^232, which holds the four cysteine to serine mutations; also called C-SH2 mutant; source: E. coli Rosetta (DE3), purified (same protocol as the WT counterpart); not shown: His6, N-terminal, cleaved
T3 sequence (looked up): T1 sequence (looked up) with A34R, R225E, K227E

T4: RasGAP^232 (p120RasGAP N-SH2, SH3 and C-SH2 domains, residues 174-444) (human, UniProt P20936 174-444, C236 | C261 | C372 | C402)
T4 construct: p120RasGAP (RASA1), human, UniProt P20936, residues 174-444 (N-SH2, SH3, C-SH2), with four cysteine to serine mutations; also called WT RasGAP^232; apo RasGAP^232; source: E. coli Rosetta (DE3), purified (Ni-NTA, TEV cleavage, anion exchange, SEC)
T4 sequence (looked up): T1 sequence (looked up) with A34R

T5: RasGAP^232(mut) (RasGAP^232 with R398E/K400E in the C-SH2 domain) (human, UniProt P20936 174-444, R398E | K400E | C236 | C261 | C372 | C402)
T5 construct: p120RasGAP (RASA1), human, UniProt P20936, residues 174-444, mutant of RasGAP^232 in the C-SH2 domain; also called C-SH2 mutant; source: E. coli Rosetta (DE3), purified (same protocol as the WT: Ni-NTA, TEV cleavage, anion exchange, SEC)
T5 sequence (looked up): T1 sequence (looked up) with A34R, R225E, K227E

T6: RasGAP^2(mut)32 (RasGAP^232 with R207A in the N-SH2 domain) (human, UniProt P20936 174-444, R207 to alanine | C236 | C261 | C372 | C402)
T6 construct: p120RasGAP (RASA1), human, UniProt P20936, residues 174-444, mutant of RasGAP^232 in the N-SH2 domain; also called N-SH2 mutant; source: E. coli Rosetta (DE3), purified (same protocol as the WT: Ni-NTA, TEV cleavage, anion exchange, SEC)
T6 sequence (looked up): T1 sequence (looked up)

B1: doubly phosphorylated EphB4 peptide (residues 586-602) (peptide)
peptide: Ac-GTKV[pY]IDPFT[pY]EDPNEA-NH2
SMILES: CC[C@H](C)[C@H](NC(=O)[C@H](Cc1ccc(OP(=O)(O)O)cc1)NC(=O)[C@@H](NC(=O)[C@H](CCCCN)NC(=O)[C@@H](NC(=O)CNC(C)=O)[C@@H](C)O)C(C)C)C(=O)N[C@@H](CC(=O)O)C(=O)N1CCC[C@H]1C(=O)N[C@@H](Cc1ccccc1)C(=O)N[C@H](C(=O)N[C@@H](Cc1ccc(OP(=O)(O)O)cc1)C(=O)N[C@@H](CCC(=O)O)C(=O)N[C@@H](CC(=O)O)C(=O)N1CCC[C@H]1C(=O)N[C@@H](CC(N)=O)C(=O)N[C@@H](CCC(=O)O)C(=O)N[C@@H](C)C(N)=O)[C@@H](C)O
notes: EphB4, UniProt P54760, juxtamembrane residues 586-602; also called pYpY EphB4; pYpYEphB4; source: synthetic peptide, bought: GenScript
B2: doubly phosphorylated Dok1 peptide (residues 291-322) (peptide)
peptide: Ac-SPPAL[pY]AEPLDSLRIAPCPSQDSL[pY]SDPLDST-NH2
SMILES: CC[C@H](C)[C@H](NC(=O)[C@H](CCCNC(=N)N)NC(=O)[C@H](CC(C)C)NC(=O)[C@H](CO)NC(=O)[C@H](CC(=O)O)NC(=O)[C@H](CC(C)C)NC(=O)[C@@H]1CCCN1C(=O)[C@H](CCC(=O)O)NC(=O)[C@H](C)NC(=O)[C@H](Cc1ccc(OP(=O)(O)O)cc1)NC(=O)[C@H](CC(C)C)NC(=O)[C@H](C)NC(=O)[C@@H]1CCCN1C(=O)[C@@H]1CCCN1C(=O)[C@H](CO)NC(C)=O)C(=O)N[C@@H](C)C(=O)N1CCC[C@H]1C(=O)N[C@@H](CS)C(=O)N1CCC[C@H]1C(=O)N[C@@H](CO)C(=O)N[C@@H](CCC(N)=O)C(=O)N[C@@H](CC(=O)O)C(=O)N[C@@H](CO)C(=O)N[C@@H](CC(C)C)C(=O)N[C@@H](Cc1ccc(OP(=O)(O)O)cc1)C(=O)N[C@@H](CO)C(=O)N[C@@H](CC(=O)O)C(=O)N1CCC[C@H]1C(=O)N[C@@H](CC(C)C)C(=O)N[C@@H](CC(=O)O)C(=O)N[C@@H](CO)C(=O)N[C@H](C(N)=O)[C@@H](C)O
notes: Dok1, UniProt Q99704, residues 291-322; also called pYpY Dok1; pYpYDok1; source: synthetic peptide, bought: GenScript
B3: doubly phosphorylated EphB4 peptide (residues 586-602, pY590 and pY596) (peptide)
peptide: Ac-GTKV[pY]IDPFT[pY]EDPNEA-NH2
SMILES: CC[C@H](C)[C@H](NC(=O)[C@H](Cc1ccc(OP(=O)(O)O)cc1)NC(=O)[C@@H](NC(=O)[C@H](CCCCN)NC(=O)[C@@H](NC(=O)CNC(C)=O)[C@@H](C)O)C(C)C)C(=O)N[C@@H](CC(=O)O)C(=O)N1CCC[C@H]1C(=O)N[C@@H](Cc1ccccc1)C(=O)N[C@H](C(=O)N[C@@H](Cc1ccc(OP(=O)(O)O)cc1)C(=O)N[C@@H](CCC(=O)O)C(=O)N[C@@H](CC(=O)O)C(=O)N1CCC[C@H]1C(=O)N[C@@H](CC(N)=O)C(=O)N[C@@H](CCC(=O)O)C(=O)N[C@@H](C)C(N)=O)[C@@H](C)O
notes: EphB4 juxtamembrane region, UniProt P54760, residues 586-602; also called pYpY EphB4; pYpYEphB4; source: synthetic peptide, bought: GenScript

How the values were obtained:
Conditions in all cases: both partners purified
[1] = target: T1, RasGAP^2(mut)32 (RasGAP^232 with R207A …); experiment: ITC; RasGAP^232 protein (WT or mutant) in the 190 µl sample cell, peptide in the syringe, 20 injections of 2.5 µl; 20 mM Tris pH 8, 250 mM NaCl; Nano ITC (TA Instruments); blank (constant) and independent models; values of single trials, averages and stdev
[2] = target: T2, RasGAP^232 (p120RasGAP SH2-SH3-SH2 …); experiment: as above
[3] = target: T3, RasGAP^232(mut) (RasGAP^232 with …); experiment: as above
[4] = target: T4, RasGAP^232 (p120RasGAP N-SH2, SH3 and …); experiment: ITC; protein in the 190 ul sample cell, titrated 20 times with 2.5 ul peptide from the syringe; 20 mM Tris pH 8, 250 mM NaCl; Nano ITC (TA Instruments); independent binding model
[5] = target: T5, RasGAP^232(mut) (RasGAP^232 with …); experiment: as above
[6] = target: T6, RasGAP^2(mut)32 (RasGAP^232 with R207A …); experiment: as above

| Binder | Ka [1] | Kd [1] | stoichiometry N [1] | Kd [2] | stoichiometry N [2] | Ka [3] | Kd [3] | stoichiometry N [3] | Ka [2] | Kd [4] [nM] | dH [4] [kcal/mol] | stoichiometry N [4] | Kd [5] [nM] | dH [5] [kcal/mol] | stoichiometry N [5] | Kd [6] [nM] | dH [6] [kcal/mol] | stoichiometry N [6] |
| --- | --- | --- | --- | --- | --- | --- | --- | --- | --- | --- | --- | --- | --- | --- | --- | --- | --- | --- |
| B1 | 40000 M⁻¹ and 30000 M⁻¹ and 20000 M⁻¹ | 25000 nM and 32000 nM and 60000 nM and 38000 nM | 0.7 and 1 and 0.9 and 1.2 | 1300 nM and 1500 nM and 2400 nM and 2700 nM | 0.9 and 1 and 1.1 | 900000 M⁻¹ and 700000 M⁻¹ and 1e+06 M⁻¹ | 1100 nM and 1500 nM and 1000 nM and 800 nM | 0.8 and 0.7 | – | – | – | – | – | – | – | – | – | – |
| B2 | – | – | – | 16 nM and 47 nM and 23 nM | 0.9 and 0.8 and 0.7 | – | – | – | 6.3e+07 M⁻¹ and 2.1e+07 M⁻¹ and 4.3e+07 M⁻¹ and 4e+07 M⁻¹ | – | – | – | – | – | – | – | – | – |
| B3 | – | – | – | – | – | – | – | – | – | 2000 ± 700 | -5.74 ± 0.717 | 1 ± 0.1 | 1000 ± 300 | -5.98 ± 0.239 | 0.75 ± 0.02 | 40000 ± 20000 | -7.89 ± 1.43 | 0.9 ± 0.2 |
